Measurements: patent publication US20230081195A1 (INSTITUTE OF GENETICS AND DEVELOPMENT BIOLOGY CHINESE …, published 2023)

Assays:
[1] = molecular target: T1, OML4-nLUC (rice; firefly, UniProt Q64M78 1-1001); assay: firefly luciferase complementation imaging, co-expression in N. benthamiana leaves
T1 construct: Co-expressed in N. benthamiana leaves; Order of the pieces follows the printed name; not shown: N-terminal fragment of firefly luciferase (nLUC)
T1 sequence: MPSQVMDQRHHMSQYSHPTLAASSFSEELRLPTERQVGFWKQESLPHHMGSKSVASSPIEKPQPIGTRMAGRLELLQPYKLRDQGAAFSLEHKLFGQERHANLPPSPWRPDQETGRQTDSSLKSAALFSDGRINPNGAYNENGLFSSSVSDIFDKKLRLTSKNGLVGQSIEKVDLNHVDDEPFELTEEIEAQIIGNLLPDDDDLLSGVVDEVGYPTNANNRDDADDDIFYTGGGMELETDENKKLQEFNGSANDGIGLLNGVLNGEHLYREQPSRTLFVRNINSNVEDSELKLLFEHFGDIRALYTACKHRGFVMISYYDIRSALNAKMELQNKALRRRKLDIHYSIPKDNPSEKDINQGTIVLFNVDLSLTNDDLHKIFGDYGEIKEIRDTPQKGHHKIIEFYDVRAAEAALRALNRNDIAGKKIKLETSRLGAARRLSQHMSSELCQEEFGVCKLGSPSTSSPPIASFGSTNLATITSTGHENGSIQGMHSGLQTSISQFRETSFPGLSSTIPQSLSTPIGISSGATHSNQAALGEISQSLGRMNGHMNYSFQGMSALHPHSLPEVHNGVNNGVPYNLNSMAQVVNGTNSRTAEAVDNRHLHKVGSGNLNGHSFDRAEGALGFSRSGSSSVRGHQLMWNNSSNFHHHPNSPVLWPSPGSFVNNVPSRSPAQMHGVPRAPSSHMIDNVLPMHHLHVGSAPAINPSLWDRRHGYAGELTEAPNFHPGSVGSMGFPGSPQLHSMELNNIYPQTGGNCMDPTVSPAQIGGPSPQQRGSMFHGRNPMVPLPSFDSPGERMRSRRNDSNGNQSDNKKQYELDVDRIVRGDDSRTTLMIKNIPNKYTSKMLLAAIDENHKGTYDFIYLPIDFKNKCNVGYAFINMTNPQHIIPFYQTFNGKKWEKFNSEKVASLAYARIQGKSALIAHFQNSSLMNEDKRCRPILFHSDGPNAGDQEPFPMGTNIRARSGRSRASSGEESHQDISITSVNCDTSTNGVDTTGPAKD
Experimental: (A) OML4 interacts with GSK2 in yeast cells. Yeast cells were cultured on SD/-Trp-Leu or SD/-Trp-Leu-His-Ade media. (B) OML4 associates with GSK2 in N. benthamiana. OML4-nLUC and GSK2-cLUC were co-expressed in N. benthamiana leaves. Luciferase activity was observed 48 hours after infiltration. The range of luminescence intensity was scaled by the pseudocolor bar. (C) Bimolecular fluorescence complementation (BiFC) assays shown that OML4 interacts with GSK2 in N. benthamiana. OML4-cYFP was coexpressed with GSK2-nYFP in leaves of N. benthamiana. (D) OML4 binds GSK2 in vitro. GSK2-GST was incubated with OML4-MBP and pulled down by OML4-MBP and detected by immunoblot with anti-GST antibody. IB: immunoblot. (E) Interaction between OML4 and GSK2 in the Co-IP assays. Anti-MYC beads were used to immunoprecipitate GSK2-GFP proteins. Gel blots were probed with anti-MYC or anti-GFP antibody. Bars: 50 μm in C.
We next verified the interaction between OML4 and GSK2 in plant cells using the firefly luciferase (LUC) complementation imaging assay (FIG. 5B). The OML4-nLUC and GSK2-cLUC were transformed and co-expressed in N. benthamiana leaves. […] We then performed bimolecular fluorescence complementation (BiFC) assay to test the interaction between OML4 and GSK2 in plant cells (FIG. 5C). […]

[2] = molecular target: T2, OML4-Flag
T2 chain: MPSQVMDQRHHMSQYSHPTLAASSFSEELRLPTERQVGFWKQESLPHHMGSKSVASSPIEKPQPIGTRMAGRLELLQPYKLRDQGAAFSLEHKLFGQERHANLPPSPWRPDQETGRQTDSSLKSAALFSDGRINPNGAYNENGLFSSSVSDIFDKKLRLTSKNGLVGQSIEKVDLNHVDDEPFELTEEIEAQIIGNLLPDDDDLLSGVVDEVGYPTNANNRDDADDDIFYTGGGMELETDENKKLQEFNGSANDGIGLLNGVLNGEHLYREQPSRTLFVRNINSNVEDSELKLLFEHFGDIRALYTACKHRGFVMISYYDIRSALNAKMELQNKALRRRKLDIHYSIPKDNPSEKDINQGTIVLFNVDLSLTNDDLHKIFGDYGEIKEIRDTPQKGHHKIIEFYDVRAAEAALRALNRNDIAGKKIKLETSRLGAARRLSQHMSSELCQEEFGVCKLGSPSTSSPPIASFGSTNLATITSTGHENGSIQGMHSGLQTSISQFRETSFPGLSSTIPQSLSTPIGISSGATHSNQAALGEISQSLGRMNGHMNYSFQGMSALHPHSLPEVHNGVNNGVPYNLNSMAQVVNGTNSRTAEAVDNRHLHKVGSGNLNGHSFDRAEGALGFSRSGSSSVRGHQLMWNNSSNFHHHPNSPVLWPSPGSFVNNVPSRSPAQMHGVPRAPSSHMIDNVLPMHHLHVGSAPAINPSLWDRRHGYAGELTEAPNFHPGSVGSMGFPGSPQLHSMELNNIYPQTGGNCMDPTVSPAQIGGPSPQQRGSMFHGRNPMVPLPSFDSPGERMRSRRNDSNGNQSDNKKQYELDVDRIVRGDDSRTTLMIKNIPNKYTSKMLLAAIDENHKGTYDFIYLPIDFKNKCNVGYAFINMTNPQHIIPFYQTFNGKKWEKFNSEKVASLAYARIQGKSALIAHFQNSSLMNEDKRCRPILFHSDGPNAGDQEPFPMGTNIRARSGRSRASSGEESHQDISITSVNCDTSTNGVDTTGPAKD

[3] = molecular target: OML4S105A, S607A-MBP
[4] = molecular target: cOML4(S607A)-FLAG
[5] = molecular target: T3, cOML4-Flag
T3 chain: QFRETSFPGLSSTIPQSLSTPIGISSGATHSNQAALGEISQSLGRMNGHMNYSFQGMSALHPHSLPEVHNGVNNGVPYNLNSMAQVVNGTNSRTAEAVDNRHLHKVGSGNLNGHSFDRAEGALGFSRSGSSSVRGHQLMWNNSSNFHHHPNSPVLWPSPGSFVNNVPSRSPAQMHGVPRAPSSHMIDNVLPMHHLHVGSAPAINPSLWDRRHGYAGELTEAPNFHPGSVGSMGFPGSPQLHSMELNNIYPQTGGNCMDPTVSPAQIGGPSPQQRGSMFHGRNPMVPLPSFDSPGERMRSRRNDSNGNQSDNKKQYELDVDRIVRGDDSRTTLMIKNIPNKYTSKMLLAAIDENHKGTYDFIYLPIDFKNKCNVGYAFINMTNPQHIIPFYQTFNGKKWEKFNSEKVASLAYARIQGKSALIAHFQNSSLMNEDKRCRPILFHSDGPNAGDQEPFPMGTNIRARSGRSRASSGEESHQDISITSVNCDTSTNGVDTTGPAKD

[6] = molecular target: nOML4(S105A)-FLAG
[7] = molecular target: T4, nOML4-Flag
T4 chain: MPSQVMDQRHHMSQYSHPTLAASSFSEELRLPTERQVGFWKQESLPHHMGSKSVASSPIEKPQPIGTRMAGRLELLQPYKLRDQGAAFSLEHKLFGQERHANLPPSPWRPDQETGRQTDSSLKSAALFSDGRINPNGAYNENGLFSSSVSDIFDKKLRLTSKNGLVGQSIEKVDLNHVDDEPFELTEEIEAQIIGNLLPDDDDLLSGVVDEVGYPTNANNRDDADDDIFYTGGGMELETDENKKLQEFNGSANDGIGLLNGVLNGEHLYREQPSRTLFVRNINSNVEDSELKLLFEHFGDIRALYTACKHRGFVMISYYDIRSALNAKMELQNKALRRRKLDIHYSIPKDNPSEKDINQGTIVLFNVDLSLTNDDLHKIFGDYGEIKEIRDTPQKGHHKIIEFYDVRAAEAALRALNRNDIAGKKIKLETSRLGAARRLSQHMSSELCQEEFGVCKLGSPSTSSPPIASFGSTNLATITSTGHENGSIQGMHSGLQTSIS

B1: cLUC (other, firefly, UniProt P08659 398-550, looked up)
chain: MSGYVNNPEATNALIDKDGWLHSGDIAYWDEDEHFFIVDRLKSLIKYKGYQVAPAELESILLQHPNIFDAGVAGLPDDDAGELPAAVVVLEHGKTMTEKEIVDYVASQVTTAKKLRGGVVFVDEVPKGLTGKLDARKIREILIKAKKGGKSKL
notes: Control of the luciferase complementation imaging assay
B1: no binding [1].

B2: GSK2-GST (protein)
chain: MDQPAPAPEPMLLDAQPPAAVACDKKQQEGEAPYAEGNDAVTGHIISTTIGGKNGEPKRTISYMAERVVGTGSFGIVFQAKCLETGETVAIKKVLQDRRYKNRELQLMRAMDHPNVISLKHCFFSTTSRDELFLNLVMEYVPETLYRVLKHYSNANHRMPLIYVKLYMYQLFRGLAYIHTVPGVCHRDVKPQNVLVDPLTHQVKLCDFGSAKTLVPGEPNISYICSRYYRAPELIFGATEYTTSIDIWSAGCVLAELLLGQPLFPGESAVDQLVEIIKVLGTPTREEIRCMNPNYTEFRFPQIKAHPWHKVFHKRMPPEAIDLASRLLQYSPSLRCTALDACAHPFFDELREPNARLPNGRPFPPLFNFKHELANSSQELISRLIPEHVRRQATHNFFNTGS
In the case of B2, the “phosphorylation, in vitro kinase assay, phos-tag SDS-PAGE” value (“phosphorylation, in vitro kinase assay” below) [2] is reported as “The phosphorylated OML4-Flag, nOML4-Flag and cOML4-Flag were detected in the presence of GSK2-GST, while the phosphorylated OML4-Flag, nOML4-Flag and cOML4-Flag were not found in the absence of GSK2-GST”, the “phosphorylation level, phos-tag SDS-PAGE” value [3] is reported as “Mutations of the two aforementioned Ser residues to Ala reduced the phosphorylation level of OML4, although OML4^S105A,S607A was still phosphorylated by GSK2” and the “phosphorylation, phos-tag SDS-PAGE” value [4] is reported as “S(105) and S(607) partially influence the phosphorylation of OML4”. The “phosphorylation, in vitro kinase assay” value [5] was “The phosphorylated OML4-Flag, nOML4-Flag and cOML4-Flag were detected in the presence of GSK2-GST, while the phosphorylated OML4-Flag, nOML4-Flag and cOML4-Flag were not found in the absence of GSK2-GST”, the “phosphorylation, phos-tag SDS-PAGE” value [6] was “S(105) and S(607) partially influence the phosphorylation of OML4” and the “phosphorylation, in vitro kinase assay” value [7] was “The phosphorylated OML4-Flag, nOML4-Flag and cOML4-Flag were detected in the presence of GSK2-GST, while the phosphorylated OML4-Flag, nOML4-Flag and cOML4-Flag were not found in the absence of GSK2-GST”.
